Reference: patent US20220177587A1, “METHODS AND USES OF VARIANT CD80 FUSION PROTEINS AND RELATED CONSTRUCTS” (Alpine Immune Sciences, Inc., priority 2018, published 2022)
Read-outs that look alike come from different tables or passages of the source. Each block holds one substance with its values, some of them ahead of it.

Tests used:
CD28 [1] = target: T1, CD28 (Homo sapiens, UniProt P10747); assay: Jurkat/IL2 + CHO/OKT3 +/- PD-L1 reporter assay: PD-L1-dependent CD28 costimulation; assay type: cell-based; parameters: host or cells: Jurkat cells expressing an IL-2-luciferase reporter; settings: Table E22; Jurkat/IL2 + CHO/OKT3/PD-L1; CD80 Conc 5.0 nM
Experimental: Jurkat cells were then plated at 50 μL/well for a total of 100,000 cells per well.
To each well, 25 μL of test protein was added to the Jurkat cells. […] The Jurkat cells with test or control proteins were incubated for 15 minutes at room temperature. CHO-derived artificial antigen presenting cells (aAPC) displaying transduced cell surface anti-CD3 single chain Fv (OKT3) (i.e., no PD-L1), or OKT3 and PD-L1 (i.e., +PD-L1), were brought to 0.8×10^6 cells/mL, and 25 μL of cells were added to each well, bringing the final volume of each well to 100 μL. […] Jurkat cells and CHO cells were incubated for 5 hours at 37 degrees Celsius in a humidified 5% CO2 incubation chamber. Plates were then removed from the incubator and acclimated to room temperature for 15 minutes. 100 μL of a cell lysis and luciferase substrate solution (BioGlo luciferase reagent, Promega) were added to each well and the plates were incubated on an orbital shaker for 10 minutes. Luminescence was measured with a 1 second per well integration time using a BioTek Cytation luminometer, and a relative luminescence value (RLU) was determined for each test sample.

huCTLA4 = huCTLA4 (Homo sapiens, UniProt P16410); assay: Flow binding to CHO cells stably expressing CTLA4; parameters: huCTLA4 and huPD-L1, full-length mammalian surface expression constructs were generated; expressed in transfected cells; host or cells: CHO cells, lentiviral transduction, sorted to >98% purity; settings: CHO cells stably expressing CTLA4
Experimental: (§1) Binding of selected immunomodulatory fusion proteins to cognate binding partners was assessed. […] Cells were sorted in a Bio-Rad S3 Cell Sorter (Bio-Rad Corp., USA) to >98% purity. Jurkat/IL2 reporter cells, which endogenously express CD28, were used to detect binding to CD28.
(§2) For staining and analysis by flow cytometry, 100,000 cells of appropriate transfected cells were plated in 96-well round bottom plates. Cells were spun down and resuspended in staining buffer (phosphate buffered saline (PBS), 1% bovine serum albumin (BSA), and 0.1% sodium azide) for 20 minutes to block non-specific binding. […] Primary staining was performed on ice for 45 minutes, before washing cells in staining buffer twice. Phycoerythrin (PE)-conjugated anti-human Fc (Jackson ImmunoResearch, USA) was diluted 1:150, added to cells and incubated another 30 minutes on ice. Cells were then washed twice with 150 μL/well stain buffer, fixed in 2% formaldehyde/PBS, and analyzed on Intellicyt flow cytometer (Intellicyt Corp., USA). PE Mean Fluorescence Intensity (MFI) was calculated for each cell type with FlowJo Version 10 software (FlowJo LLC, USA).
(§3) Binding assays were carried out to assess the specificity and affinity of multivalent proteins to cell-expressed CTLA-4, CD28, and PD-L1 counter structures.
(§4) The EC50 for binding also was determined.

huPD-L1 = huPD-L1 (Homo sapiens, UniProt Q9NZQ7); assay: Flow binding to CHO cells stably expressing PD-L1; parameters: huCTLA4 and huPD-L1, full-length mammalian surface expression constructs were generated; expressed in transfected cells; host or cells: CHO cells, lentiviral transduction, sorted to >98% purity
Experimental: as §1, §2, §3, §4

CD28 [2] = target: T1, CD28; assay: Flow binding to Jurkat/IL2 reporter cells (CD28); parameters: host or cells: Jurkat cells expressing an IL-2-luciferase reporter
Experimental: as §1, §2, §3, §4

[3] = Table E20, CHO cells stably expressing PD-L1, 33.3 nM
[4] = Table E23, CD80 IgV-Fc (inert) at 33.3 nM, Jurkat (CD28)
[5] = Table E23, CD80 IgV-Fc (inert) at 33.3 nM, CHO cells stably expressing PD-L1
[6] = Table E20, Jurkats (CD28), 33.3 nM
[7] = Table E23, CD80 IgV-Fc (inert) at 33.3 nM
[8] = Table E19, CHO cells stably expressing PD-L1, 33.3 nM
[9] = Table E10, 33.3 nM, Jurkats (CD28)
[10] = Table E10, 33.3 nM, CHO cells stably expressing PD-L1
[11] = Table E25, linker variants, 33.3 nM, Jurkats (CD28)
[12] = Table E25, linker variants, 33.3 nM, CHO cells stably expressing PD-L1

huCTLA4, sequence (P16410 36-223): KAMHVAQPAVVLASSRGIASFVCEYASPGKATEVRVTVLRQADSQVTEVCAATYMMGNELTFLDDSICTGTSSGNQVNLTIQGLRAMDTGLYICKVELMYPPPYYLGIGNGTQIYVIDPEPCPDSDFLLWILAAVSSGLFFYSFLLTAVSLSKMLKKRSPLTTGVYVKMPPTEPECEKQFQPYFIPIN
huPD-L1, sequence (Q9NZQ7 19-290): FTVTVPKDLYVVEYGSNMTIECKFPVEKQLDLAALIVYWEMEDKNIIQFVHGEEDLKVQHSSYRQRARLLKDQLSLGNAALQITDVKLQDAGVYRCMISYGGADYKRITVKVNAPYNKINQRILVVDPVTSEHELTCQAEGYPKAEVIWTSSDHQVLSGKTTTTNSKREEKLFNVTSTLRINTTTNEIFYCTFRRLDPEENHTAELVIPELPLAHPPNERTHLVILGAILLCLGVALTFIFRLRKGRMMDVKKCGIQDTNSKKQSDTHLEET

Substance: A26E/E35D/M47L/A71G/D90G
Relative Luciferase Units (RLU), CD80 Conc 5.0 nM (CD28 [1]): 1132 RLU | CTLA4 MFI at 33.3 nM (huCTLA4; Table E20, 33.3 nM): 22127 | PD-L1 MFI at 33.3 nM (huPD-L1; [3]): 14550

Substance: A26E/M47L/V68M/A71G/D90G
CTLA4 MFI at 33.3 nM (huCTLA4; Table E20, 33.3 nM): 21807 | PD-L1 MFI at 33.3 nM (huPD-L1; [3]): 28139

Substance: CD80 (E88D/K89R/D90K/A91G/F92Y/K93R) ECD-Fc: variant full CD80 ECD fused to effector human IgG1 Fc (SEQ ID NO:1527)
Jurkat/CD28 MFI at 66.7 nM (CD28 [2]; 66.7 nM): 4049 | EC50 (CD28 [2]; flow binding, read-out: Jurkat/CD28 EC50): > 200 nM

Substance: E35D/M47L/V68M/A71G/D90G
CD28 MFI at 33.3 nM (CD28 [2]; [6]): 3072 | CTLA4 MFI at 33.3 nM (huCTLA4; Table E20, 33.3 nM): 26007 | PD-L1 MFI at 33.3 nM (huPD-L1; [3]): 29377

Substance: Fc Control
CD28 MFI at 33.3 nM (CD28 [2]; [6]): 15.4 | CD28 MFI at 33.3 nM (CD28 [2]; [4]): 81 | CTLA4 MFI at 33.3 nM (huCTLA4; Table E19, 33.3 nM): 52 | CTLA4 MFI at 33.3 nM (huCTLA4; Table E20, 33.3 nM): 37.9 | CTLA4 MFI at 33.3 nM (huCTLA4; [7]): 194 | PD-L1 MFI at 33.3 nM (huPD-L1; [8]): 44 | PD-L1 MFI at 33.3 nM (huPD-L1; [3]): 77.1 | PD-L1 MFI at 33.3 nM (huPD-L1; [5]): 185

Substance: H18V/A26R/E35D/M47L/V68M/A71G/D90G
CD28 MFI at 33.3 nM (CD28 [2]; [4]): 9620 | CTLA4 MFI at 33.3 nM (huCTLA4; [7]): 23151 | PD-L1 MFI at 33.3 nM (huPD-L1; [5]): 73166

Substance: H18Y/A26E/E35D/M47L/V68M
Relative Luciferase Units (RLU), CD80 Conc 5.0 nM (CD28 [1]): 895 RLU | CTLA4 MFI at 33.3 nM (huCTLA4; Table E20, 33.3 nM): 20015 | PD-L1 MFI at 33.3 nM (huPD-L1; [3]): 24683

Substance: H18Y/A26E/M47L/A71G/D90G
CD28 MFI at 33.3 nM (CD28 [2]; [6]): 2047 | Relative Luciferase Units (RLU), CD80 Conc 5.0 nM (CD28 [1]): 1036 RLU | CTLA4 MFI at 33.3 nM (huCTLA4; Table E20, 33.3 nM): 25420

Substance: H18Y/A26E/M47L/V68M/A71G
CD28 MFI at 33.3 nM (CD28 [2]; [6]): 544 | CTLA4 MFI at 33.3 nM (huCTLA4; Table E20, 33.3 nM): 21742 | PD-L1 MFI at 33.3 nM (huPD-L1; [3]): 29730

Substance: H18Y/E35D/M47L/V68M/D90G
CD28 MFI at 33.3 nM (CD28 [2]; [6]): 3389 | Relative Luciferase Units (RLU), CD80 Conc 5.0 nM (CD28 [1]): 852 RLU | PD-L1 MFI at 33.3 nM (huPD-L1; [3]): 27410

Substance: H18Y/M47L/V68M/A71G/D90G
Relative Luciferase Units (RLU), CD80 Conc 5.0 nM (CD28 [1]): 986 RLU | CTLA4 MFI at 33.3 nM (huCTLA4; Table E20, 33.3 nM): 22235

Substance: WT CD80 ECD-Fc (Abcam)
CD28 MFI at 33.3 nM (CD28 [2]; Table E19, Jurkats (CD28), 33.3 nM): 709 | PD-L1 MFI at 33.3 nM (huPD-L1; [8]): 128

Substance: WT CD80 ECD-Fc H22.6
CD28 MFI at 33.3 nM (CD28 [2]; [9]): 43 | PD-L1 MFI at 33.3 nM (huPD-L1; [10]): 46.3

Substance: WT CD80 ECD-Fc: wild-type CD80 ECD (SEQ ID NO:2)-Fc; R&D Systems where stated [reference compound]
CD28 MFI at 33.3 nM (CD28 [2]; Table E3, 33.3 nM): 7627 | CD28 MFI at 33.3 nM (CD28 [2]; Table E4, 33.3 nM, Jurkat cells (CD28)): 18035 | CD28 MFI at 33.3 nM (CD28 [2]; Table E11, Jurkats (CD28), 33.3 nM): 31 | CD28 MFI at 33.3 nM (CD28 [2]; Table E14, Jurkats (CD28), 33.3 nM): 30 | CD28 MFI at 33.3 nM (CD28 [2]; Table E16, consensus variants, Jurkats (CD28), 33.3 nM): 46 | CD28 MFI at 33.3 nM (CD28 [2]; [6]): 42.3 | CD28 MFI at 33.3 nM (CD28 [2]; [11]): 37 | EC50 (CD28 [2]; Table E31, flow binding to Jurkats (CD28), read-out: CD28 EC50): 164 nM | PD-L1 MFI at 33.3 nM (huPD-L1; Table E3, 33.3 nM): 7943 | PD-L1 MFI at 33.3 nM (huPD-L1; Table E4, 33.3 nM, CHO cells stably expressing PD-L1): 11871 | PD-L1 MFI at 33.3 nM (huPD-L1; Table E11, CHO cells stably expressing PD-L1, 33.3 nM): 52 | PD-L1 MFI at 33.3 nM (huPD-L1; Table E14, CHO cells stably expressing PD-L1, 33.3 nM): 68 | PD-L1 MFI at 33.3 nM (huPD-L1; Table E16, consensus variants, CHO cells stably expressing PD-L1, 33.3 nM): 58 | PD-L1 MFI at 33.3 nM (huPD-L1; [3]): 6377 | PD-L1 MFI at 33.3 nM (huPD-L1; [12]): 35 | EC50 (huPD-L1; Table E31, flow binding to CHO cells stably expressing PD-L1): 31.2 nM

The next lines start with the values.

Relative Luciferase Units (RLU), CD80 Conc 5.0 nM (CD28 [1]): 1010 RLU | CTLA4 MFI at 33.3 nM (huCTLA4; Table E20, 33.3 nM): 24587 | PD-L1 MFI at 33.3 nM (huPD-L1; [3]): 27806
Substance: A26E/E35D/M47L/V68M/A71G

CTLA4 MFI at 33.3 nM (huCTLA4; Table E20, 33.3 nM): 26698
Substance: A26E/E35D/M47L/V68M/D90G

CD28 MFI at 33.3 nM (CD28 [2]; [4]): 57.8 | PD-L1 MFI at 33.3 nM (huPD-L1; [5]): 161
Substance: CD80 WT ECD-Fc

Relative Luciferase Units (RLU), CD80 Conc 5.0 nM (CD28 [1]): 1015 RLU
Substance: H18Y/A26E/E35D/M47L/A71G/D90G

Relative Luciferase Units (RLU), CD80 Conc 5.0 nM (CD28 [1]): 976 RLU | CTLA4 MFI at 33.3 nM (huCTLA4; Table E20, 33.3 nM): 25404 | PD-L1 MFI at 33.3 nM (huPD-L1; [3]): 28546
Substance: H18Y/A26E/E35D/M47L/V68M/A71G

CD28 MFI at 33.3 nM (CD28 [2]; [4]): 82.2 | PD-L1 MFI at 33.3 nM (huPD-L1; [5]): 26510
Substance: H18Y/A26N/E35D/M47F/V68M/A71G/D90G

Relative Luciferase Units (RLU), CD80 Conc 5.0 nM (CD28 [1]): 851 RLU | CTLA4 MFI at 33.3 nM (huCTLA4; Table E20, 33.3 nM): 22983 | PD-L1 MFI at 33.3 nM (huPD-L1; [3]): 13327
Substance: H18Y/E35D/M47L/A71G/D90G

Relative Luciferase Units (RLU), CD80 Conc 5.0 nM (CD28 [1]): 1028 RLU | CTLA4 MFI at 33.3 nM (huCTLA4; Table E20, 33.3 nM): 19892 | PD-L1 MFI at 33.3 nM (huPD-L1; [3]): 29944
Substance: H18Y/E35D/M47L/V68M/A71G/D90G

CD28 MFI at 33.3 nM (CD28 [2]; [6]): 2724 | Relative Luciferase Units (RLU), CD80 Conc 5.0 nM (CD28 [1]): 815 RLU | CTLA4 MFI at 33.3 nM (huCTLA4; Table E20, 33.3 nM): 24335
Substance: H18Y/E35D/V68M/A71G/D90G

CD28 MFI at 33.3 nM (CD28 [2]; [9]): 23 | CTLA4 MFI at 33.3 nM (huCTLA4; Table E10, 33.3 nM): 65.7 | PD-L1 MFI at 33.3 nM (huPD-L1; [10]): 41
Substance: Inert Fc

CD28 MFI at 33.3 nM (CD28 [2]; [11]): 20 | CTLA4 MFI at 33.3 nM (huCTLA4; Table E25, linker variants, 33.3 nM): 40 | PD-L1 MFI at 33.3 nM (huPD-L1; [12]): 58
Substance: Inert Fc (control)
